Changes are numbered by the printed parent chain.
B1: AF003657 (other)
heavy: APASSSTKKTQLQLEHLLLDLQMILNGINNYKNPKLTRMLTAKFAMPKKATELKHLQCLEEELKPLEEVLNGAQSKNFHLRPRDLISNINVIVLELKGSETTFMCEYADETATIVEFLNRWITFAQSIISTLTGGGGSGGGGSGGGGSGGGGSQVQLVQSGAEVKKPGASVKVSCKASGDTFTRYYVHWVRQAPGQGLEWMGIINPSGGYASYAQKFQGRVTMTRDTSTSTVYMELSSLRSEDTAVYYCAAGLFIWGQGTLVTVSSAKTTAPSVYPLAPVCGDTTGSSVTLGCLVKGYFPEPVTLTWNSGSLSSGVHTFPAVLQSDLYTLSSSVTVTSSTWPSQSITCNVAHPASSTKVDKKIEPRGPTIKPCPPCKCPAPNAAGGPSVFIFPPKIKDVLMISLSPIVTCVVVDVSEDDPDVQISWFVNNVEVHTAQTQTHREDYNSTLRVVSALPIQHQDWMSGKEFKCKVNNKDLGAPIERTISKPKGSVRAPQVYVLPPPEEEMTKKQVTLTCMVTDFMPEDIYVEWTNNGKTELNYKNTEPVLDSDGSYFMYSKLRVEKKNWVERNSYSCSVVHEGLHNHHTTKSFSRTPGK
light: DIQMTQSPSSLSASVGDRVTITCRASQSIGRWLAWYQQKPGKAPKLLIYSASNLETGVPSRFSGSGSGTDFTLTISSLQPEDFATYYCQQYESFPVTFGPGTKVDIKRADAAPTVSIFPPSSEQLTSGGASVVCFLNNFYPKDINVKWKIDGSERQNGVLNSWTDQDSKDSTYSMSSTLTLTKDEYERHNSYTCEATHKTSTSPIVKSFNRNEC
notes: also called AF3657
B2: AF003934 (other)
heavy: APASSSTKKTQLQLEHLLLDLQMILNGINNYKNPKLTRMLTAKFAMPKKATELKHLQCLEEELKPLEEVLNGAQSKNFHLRPRDLISNINVIVLELKGSETTFMCEYADETATIVEFLNRWITFAQSIISTLTGGGGSGGGGSGGGGSGGGGSQVQLVQSGAEVKKPGASVKVSCKASGYTFTRYYMHWVRQAPGQGLEWMGIINPRAGYTSYALKFQGRVTMTRDTSTSTVYMELSSLRSEDTAVYYCTSGWDVWGQGTLVTVSSAKTTAPSVYPLAPVCGDTTGSSVTLGCLVKGYFPEPVTLTWNSGSLSSGVHTFPAVLQSDLYTLSSSVTVTSSTWPSQSITCNVAHPASSTKVDKKIEPRGPTIKPCPPCKCPAPNAAGGPSVFIFPPKIKDVLMISLSPIVTCVVVDVSEDDPDVQISWFVNNVEVHTAQTQTHREDYNSTLRVVSALPIQHQDWMSGKEFKCKVNNKDLGAPIERTISKPKGSVRAPQVYVLPPPEEEMTKKQVTLTCMVTDFMPEDIYVEWTNNGKTELNYKNTEPVLDSDGSYFMYSKLRVEKKNWVERNSYSCSVVHEGLHNHHTTKSFSRTPGK
light: B1 light with G30S, R31T, S50A, N53S, E55D, T56S, Y91S, E92Y, P100Q, D105E
notes: also called AF3934
B3: AF003651 (other)
heavy: B1 heavy
light: B1 light with W32Y, E92N
notes: also called AF3651
B4: AF003644 (other)
heavy: B1 heavy
light: B1 light with E92N
notes: also called AF3644
B5: AF003247 (other)
heavy: B1 heavy with Y185H
light: B1 light
notes: also called AF3247

Target: T1, biotinylated IL-2 receptor beta gamma heterodimer Fc (IL-2RBG; Acro ILG-H5254) (UniProt P14784 27-239; P31785 23-262, biotinylated)
T1 construct: bought heterodimer
T1 sequence (looked up) 1: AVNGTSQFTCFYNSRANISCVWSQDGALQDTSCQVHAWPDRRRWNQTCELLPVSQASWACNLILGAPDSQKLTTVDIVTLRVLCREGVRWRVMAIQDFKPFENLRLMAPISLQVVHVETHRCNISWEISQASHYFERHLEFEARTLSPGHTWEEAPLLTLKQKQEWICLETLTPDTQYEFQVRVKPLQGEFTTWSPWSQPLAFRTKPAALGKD
T1 sequence (looked up) 2: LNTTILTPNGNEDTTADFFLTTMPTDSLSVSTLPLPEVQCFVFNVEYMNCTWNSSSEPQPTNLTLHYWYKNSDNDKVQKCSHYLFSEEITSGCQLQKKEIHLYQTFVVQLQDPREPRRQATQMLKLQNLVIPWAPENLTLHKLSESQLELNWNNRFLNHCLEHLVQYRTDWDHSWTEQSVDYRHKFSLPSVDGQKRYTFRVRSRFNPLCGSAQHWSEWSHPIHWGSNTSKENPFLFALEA
Test: ELISA, captured complex, biotin-IL-2RBG 10 nM, PD-1 Fc titrated
Method: The DBA-cytokine complexes and control antibody-cytokine complexes were produced in two formats: (1) “Symmetric” immunocytokine (shown in FIG. 2E); or (2) “Asymmetric” immunocytokine (shown in FIG. 2B) by expression in mammalian cells and purified using standard protocols. […] To perform the assay, 384-well ELISA plates were coated with anti-Fc antibody at 1 micrograms/ml in 100 mM bicarbonate solution pH 9.0 overnight at 4° C. and washed twice with SUPERBLOCK™. Antibody-cytokine complexes were then added to each well at a constant concentration of 6 nM and allowed to incubate for 1 hour and washed three times in PBS plus 0.05% TWEEN® 20 (PBST). Titrated concentrations of PD-1 Fc or an IgG1 control Fc were added and allowed to incubate for 15 minutes before the addition of a constant amount of biotinylated IL-2RBG at 10 nM. The plates were incubated for an additional 30 minutes, washed and biotinylated IL-2RBG detection was performed using streptavidin-HRP and standard ELISA protocols.

Binder | binding result
B1 | binds
B2 | binds
B3 | binds
B4 | binds
B5 | binds
